Assay results as given in the DeepSol protein solubility set.

Test: soluble on expression in E. coli; label from the status in PepcDB or PDB records

Row | Sequence | soluble on expression in E. coli
1 | MYTTQMDAAKKGIITDEMRIVAEKEGVHVEKLRELVASGKVVIPANKNHKKLEPQGIGEGLRTKINVNIGISKDCCNFEMELEKAKKAIELKAEAIMDLSSYGKTREFRRKLVEMSPVMIGTVPVYDAVGFYEKDLKDISAEEFFEVVEKHAEDGVDFMTIHAGINRETAKRFKENGRLTNIVSRGGSLIFAWMELTGNENPFYEQYDRLLQIFEKYDVTISLGDALRPGSINDSTDASQIQELIVLGELTKRAWEKNVQVMIEGPGHMAINEIAPNMVLEKKLCHGAPFYVLGPIVTDIAPGYDHITSAIGGAIAAANGADFLCYVTPAEHLRLPDIDDMKEGIIAARIAAHAADIAKGIKGAREWDYQMSEARRNLDWNRMFELAIDREKAERYRKSSMPEDEDTCTMCGRMCAVKNTNKALKGEKINIL | not soluble
2 | MSGAPPPPPPYNQAYNAYPQPPQGVYTVQPGVPIGQGVQPAYAVYYQQPQTVIVDDCHHHHHHREREHGGGGGEMCCLAGLMACLCFLCLSK | not soluble
3 | SGQRPSLPMLATDERSTDKESPNEDREFVPCSSLDVRRIYPKGPLLVLPEKIYLYSEPTVKELLPFDVVINVAEEANDLRMQVPAVEYHHYRWEHDSQIALDLPSLTSIIHAATTKREKILIHSQCGLSRSATLIIAYIMKYHNLSLRHSYDLLKSRADKINPSIGLIFQLMEWEVALNAKT | soluble
4 | ADQVDPQLKFAMQRDLGIFPTQLPQYLQTEKLARTQAAAIEREFGAQFAGSWIERNEDGSFKLVAATSGARKSSTLGGVEVRNVRYSLKQLQSAMEQLDAGANARVKGVSKPLDGVQSWYVDPRSNAVVVKVDDGATDAGVDFVALSGADSAQVRIESSPGKLQTT | soluble
5 | MAHHHHHHMRRTGIRRVAPWVPPPRHDVKVTMPPPPGGEVGGSFGVSIGYSDRIACTPYWKRMALSNYALRMKENATRYPMSEHRPGEYDIRYLPKPYPCTIRNRPLLEVGEPRQIPSIQIPVIFLVNLYNEEKNSWFGRKYETVYVSRQFMREELMPQRYAIYATPEAYALLGLPVVDHGIHKEIPKTPREYEKLLERQKYDEERWKYSIEYLFRKYEAGPPELLDRAEDTWDGTEVLAVSSTAGAARHGEAVQRKGAIKHRKARKIKLF | not soluble
6 | MGSDKIHHHHHHMNSLEQLRQAEQALLEIFSGIDAQVKQNLKRVLEAFRNQRVGAHHFAGVSGYGHDDLGRETLDKVFAEVMGAEAAAVRVQFVSGTHAIACALFGVLRPGDEMLAVVGSPYDTLEEVIGLRGQGQGSLIEFGIKYRQLELTSQGSIDWQTLSTSITDNTRLVLIQRSCGYSWRPSLSIADIEKVVNLVKQQNPDTVCFVDNCYGEFIETQEPTHVGADLMAGSLIKNPGGTIVTAGGYVAGRADLVEAAACRLTAPGIGSYGGATFDQNRLLFQGLFLSPQMVGEAMKGTHLTGYVFDKLGYPVNPAPLAPRGDVIQAIKLGSGKKLIAFCKAVQQNSPVGSYLDPVPDDMPGYESQVVMAGGTFIEGSTLEFSADGPLREPYVVYCQGGTHWSHVAIALEAAIDAVGEA | not soluble
7 | TLIHIYDTSEPELDVQVTGYQWKWQYKYLGQDVEYFSNLATPQDQIHNRQAKDEHYLLEVDEPLVLPVGTKVRFLITSSDVIHSWWVPAFAVKRDAIPGFVNEAWTKVDEPGIYRGQCAELCGKDHGFMPIVVDVKPKAEFDQWLAKRKEEAAKVKELTSKEWTKEELVARGDKVYHTICAACHQAEGQGMPPMFPALKGSKIVTGPKEHHLEVVFNGVPGTAMAAFGKQLNEVDLAAVITYERNAWGNDDGDMVTPKDVVAYKQK | not soluble
8 | MGTLWWNGTFFTMVHEGDQVEAVFTEDGKIVAIGTAEELRQRYSTRINQEMNCDGAYVYPGFVDSHLHMIGLEHHHHHH | not soluble
9 | GLLAIFIVFAISWGALVEITPLIFQKQTTESVENLRVYTPLEMEGRDIYIREGCNVCHSQMVRPFRSETERYGHYSVAGESVWEHPFLWGSKRTGPDLARVGGRYSDEWHRVHLLDPRELVPESNMPGFPWLAENVLDGKLTQKKLEVFRDQFGVPYEDETIANAAKEVEGKTEMDAIIAYLQSLGH | not soluble
10 | MAMQMQLEANADTSVEEESFGPQPISRLEQCGINANDVKKLEEAGFHTVEAVAYAPKKELINIKGISEAKADKILAEAAKLVPMGFTTATEFHQRRSEIIQITTGSKELDKLLQGGIETGSITEMFGEFRTGKTQICHTLAVTCQLPIDRGGGEGKAMYIDTEGTFRPERLLAVAERYGLSGSDVLDNVAYARAFNTDHQTQLLYQASAMMVESRYALLIVDSATALYRTDYSGRGELSARQMHLARFLRMLLRLADEFGVAVVITNQVVAQVDGAAMFAADPKKPIGGNIIAHASTTRLYLRKGRGETRICKIYDSPCLPEAEAMFAINADGVGDAKD | soluble
11 | MVAPGKKFTLRHIFKNVTKWKTGEIFYSPDEEHFNVPWQMCIHRENGNMCVILCCLKVEEDRVPWKINFEYQLKIVNISGMSIVKAGNKICTEKRRFVRRQFISRNTLKSGYLVDDIITVEATVKITKVSKKQLRSFDKSNKKFSDVILAIEDEKFYVLKKFLASHSTYFKTLLLGKFEEAERQEVKLQDIDSTDFQNLMEVLYGESAIDDGTIKGILELADMYDMPFPIRKCEEFLIDSSEKSIKEKLKIAKQYKMENLKNSCLSKVNTVRDIKAAMTGDPTEMDLSVLAALLGKSLALH | not soluble
12 | MGLTIPVILNSVNNLSDARYAAGMGVEFMGFEVEASGERYVSPDLYKAITAWLSGVQTVTELAVLTPAVLTTIQEQYQPDFIQFESVEGISQSDLADLPCIQKIIISTGQEAKIFNNLAQYIFSEANYVLLELSDWTNWTEFQQLITEINTAYPVIWSLPIEKEDAALIQEIELKGISLKGGDEQRPGWKDLDQLIDILEALEEN | not soluble
13 | MPSSTTVPTRRGLVSGPSSSDAHGDMPAVSVIMNCLNCERDLAEAIGSVFAQTFDDWEIVFWDNGSTDRSAEIAQGFGERVRYFRATETVPLGAARNLAIAKARGEFIAFLDCDDVWLPEKLERQVALFRANPRVGLVCTDTVMFTGAKDLNRLFEHAHPARGHVFRELMTTQWISMSSAVIRRNALDGMDHWFDESLNVCEEADVFYRIAWDWELDHVDAPLTRWRVHGANTTFRKFGQFAEETLRILDKHRAMYPGYDERYADLVALLRRRAAFQRAVALWREGRGAEARATIAPFDASPKFRLFRLATYLPGALFDPLARLYFALPAFLRRLEHHHHHH | not soluble
14 | MGSDKIHHHHHHMGLLYRETYEVPFYESDTNHYMKLPQLLALALQISAKQSLKLGIGDDIVFKRYGLVWVVTDYIIDIERLPKHAEKIVIETEAKAHNKLLCYRYFYIYGEDGQKIITISSAFVLMDFKTRKIHPVLDDITSIYQSQRIKKVIRGPKYHPIGDSKVKQYHVRYFDLDMNGHVNNSKYLEWMYDVLDLDFLSSHIPKKIDLKYIKEIQYGTDIKSHWYQDGLVTRHDIIGGDAIHAQARIEWQEKKED | not soluble
15 | MSNYTIIDLNQQPHLIPSAAQWFSQKWQIPAEAYQASMQEMLTSENHVPHWWVCLNKQQDIVAGVGVIDNDFHNRADLTPNLCALYVEPTFRHQGLAGILLTTVGDFLANSGFKKLYLLTDHTTFYERYDWEFLTMVTTEEQSCARIYQKQLRQ | not soluble
16 | MIKKVIKRDGREKDFDILRIEHAIKKAEKSIEVNECWDDDALCDILMKIDETNLKKIEIEKVQDIVIDVLNKYNKNVAKAYSDYRKERTKIRQDKSNLMKIIDKIGVETDRDNANVGNNFSSKLLRIASESNKVHNLLK | not soluble
17 | MKLNIRAQTAQNQHNNSPIVLVHGLFGSLDNLGVLARDLVNDHNIIQVDVRNHGLSPREPVMNYPAMAQDLVDTLDALQIDKATFIGHSMGGKAVMALTALAPDRIDKLVAIDIAPVDYHVRRHDEIFAAINAVSESDAQTRQQAAAIMRQHLNEEGVIQFLLKSFVDGEWRFNVPVLWDQYPHIVGWEKIPAWDHPALFIPGGNSPYVSEQYRDDLLAQFPQARAHVIAGAGHWVHAEKPDAVLRAIRRYLNDH | soluble
18 | MPRDPLIGIVGKPSSGKSTTLNSLTDAGAAVGAFPFTTIEPNQATGYLQVECACSRFGKEDLCKPNYGWCSKGKRHIPIKLLDVAGLVPGAHSGRGLGNKFLDDLRHADALIHVVDVSGTTDAEGKNTRGYDPLNDIEWLQDEIRLWVEGNLKKRWGSIVRKHTATKSSIVDTLQAQFGGYGSHAPMIQKALDRLKGLPPLEKWDDEWITRVVKSFMMEKFPTVLALNKIDHPDADKNVSKIMLKYPDTKAVLTSAVTEVFLRKLKKQGFILYEEGTEFVDTFEDEPDKLKPLDDKILNRIENIRDLVLYRFGSTGVVQVLQAATDILGLIPVYTVKNIQTFTGGNGTNVFRDCFLVKRGTPVGKVARYIMGGEVTIASIETVGGVRVSEESLVEPGKNDILGFKIAPRSA | soluble
19 | MGGSHHHHHHGMASWPPPRCPLGVPLVLDGCGCCRVCARRLGEPCDQLHVCDASQGLVCQPGAGPGGRGALCLLAEDDSSCEVNGRLYREGETFQPHCSIRCRCEDGGFTCVPLCSEDVRLPSWDCPHPRRVEVLGKCCPEWVCGQGGGLGTQPLPAQGPQFSGLVSSLPPGVPCPEWSTAWGPCSTTCGLGMATRVSNQNRFCRLETQRRLCLSRPCPPSRGRSPQNSAF | not soluble
20 | MGSDKIHHHHHHMSYQDGKYQTEAEGLHGPVKVATTITGGKISAVEVLVGAGEYQSKANDVIASEIIAAQSTDVDAVSGATVSSNAIMTAVKKALQEASGESQDKTSEELTTDLAIVAAGPAGLAAAVSAAEQGVKILVFEKEKITGGTANMGMGPLGINSKIQRANFNEITVAEALKNQMEYTHYRVNGRLVARLLQIVCLNYRLVGRHGSQVRRGFPLLQGIQRHLAHR | not soluble
21 | MKQKRLTFLLLLISNLFCASAQKWYKPEIDLKVEELLSQMTVEEKLGYIGGIDWMYTKSIDRLGIHRMRMSDGPQGIGTKGKSTAYPATVTLAATWNENLAYQYGKALGRDCRARNINVILGPAVNIYRAPMCGRNFEYMGEDPYLTSRICVGYIKGVQDQGVMATVKHFVANNSDYDRNNISNDIDERTLNEIYFPAYKAAIQEAEVGAIMTSYNLMNGIYTTENPWLLKEVLRNQWGFKGLVMSDWGSTHYCVPAARSGLDLEMAGGEKMNPKDMAYYLKTGDVTMDMVDEKVRHILRILIAFGFKDGTEADKSIALDDPQSVETA | not soluble
22 | MAHHHHHHMSINRYNYKTMNSLLKDKIPQHFDILPHTTIKCIIHPSVIFTILDAYLRRDEDQTHVIGTLMGSVIDTNLVEISDCFVDKHSLNEGGFLQIIKDHHETMYELKQKIRPRDQVVGWFCSGSELSELSCAVHGWFKEHNSISKFYPHTPLNEPIHLLVDASLESGFLNIKAYVQLPISLVKDYFVHFHEIQTELLPCNVERADVSLVKGNIHAHKDNHTNNLEHNHNNNQIDMNELSLKKLLIMLKQCKSYVQDVIDQKKKGNISVGRYLHKVLSNDTFLTLEKFDSINESVLQDNLMISYLSNLANLQFLIAEKLNSSSLQ | not soluble
23 | FRFCFKQMNKSQHELVLGWIHQPHINEWLHGDGLSNTIKDLHEFLNDGKPWATHWIAYDNEIPFAYLITSEIEKSEEYPDGAVTLDLFICRLDYIGKGLSVQMIHEFILSQFSDTKIVLINPEISNERAVHVYKKAGFEIIGEFIASWHPVPHYKMKLCI | not soluble
